Laboratory results reported in US20170190775A1 (published 2017).

T1: cynomolgus TREM-1 (cTREM-1) protein (cynomolgus monkey)
T1 construct: also called cyno TREM-1
T1 chain: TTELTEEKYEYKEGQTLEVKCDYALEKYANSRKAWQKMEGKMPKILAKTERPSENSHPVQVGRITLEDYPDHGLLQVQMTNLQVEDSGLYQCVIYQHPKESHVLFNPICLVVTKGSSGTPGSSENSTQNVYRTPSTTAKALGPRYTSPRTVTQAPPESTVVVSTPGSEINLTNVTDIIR

T2: full length cynomolgus monkey (c)TREM-1 on cells (cynomolgus monkey)
T2 construct: also called cynoTREM-1; cTREM-1 reporter cell
T2 chain: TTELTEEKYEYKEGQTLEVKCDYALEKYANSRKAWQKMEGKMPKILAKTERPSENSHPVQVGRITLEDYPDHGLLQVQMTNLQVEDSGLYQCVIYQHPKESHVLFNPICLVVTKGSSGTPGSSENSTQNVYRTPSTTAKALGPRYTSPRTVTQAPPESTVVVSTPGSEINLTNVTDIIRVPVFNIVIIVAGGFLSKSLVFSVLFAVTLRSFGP

T3: cTREM-1 construct, residues M1-R180 of SEQ ID NO: 12 with six histidine residues at the C-terminus (cynomolgus monkey)
T3 chain: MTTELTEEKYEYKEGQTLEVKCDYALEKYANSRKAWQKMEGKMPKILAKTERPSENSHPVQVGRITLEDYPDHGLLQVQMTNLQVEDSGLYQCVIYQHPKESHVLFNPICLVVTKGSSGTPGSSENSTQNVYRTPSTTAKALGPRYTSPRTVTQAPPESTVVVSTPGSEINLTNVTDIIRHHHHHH


Tests used:
[1] = biological target: T1, cynomolgus TREM-1 (cTREM-1) protein; test: SPR, mAb captured by anti-Fc, cTREM-1 as analyte
Description: Binding studies were performed on a ProteOn Analyzer (BioRad) that measures molecular interactions in real time through surface plasmon resonance. Experiments were run at 25° C. and the samples were stored at 15° C. in the sample compartment. The signal (RU, response units) reported by the ProteOn is directly correlated to the mass on the individual sensor chip surfaces in six parallel flow cells. Anti-human Fc monoclonal or anti-murine Fc polyclonal antibody from Biacore human or mouse Fc capture kits were immobilized in horizontal direction onto flow cells of a GLM sensor chip according to the manufacturer's instructions. The final immobilization level of capture antibody was approximately 2600-6000 RU in different experiments. […] Binding of hTREM-1 or cTREM-1 proteins was conducted by injecting analyte (antigen) over all flow cells in horizontal direction to allow for comparative analyses of binding to different captured anti-TREM-1 antibodies relative to binding to the reference interspot. hTREM-1 or cTREM-1 proteins was diluted serially 1:3 to 1.2-100 nM or into running buffer, injected at 100 μl/min for 250 s and allowed to dissociate for 600s. The GLM surface was regenerated after each injection cycle of analyte via two 18 s injections of 10 mM Glycine, pH 1.7 and 50 mM NaOH at 100 μl/min. This regeneration step removed the anti-TREM-1 antibody and any bound TREM-1 protein from the immobilized capture antibody surface, and allowed for the subsequent binding of the next interaction sample pair.

[2] = biological target: T2, full length cynomolgus monkey (c)TREM-1 …; test: binding to cynomolgus monkey PBMCs, FIG. 6A
[3] = biological target: T2, full length cynomolgus monkey (c)TREM-1 …; test: binding to cynomolgus monkey PBMCs, FIG. 6B
[4] = biological target: T3, cTREM-1 construct, residues M1-R180 of …; test: HX-MS
Description: Non-deuterated controls were prepared by diluting into protiated hepes buffer. The hydrogen exchange experiments were performed on a waters HDX nanoAcquity ultra-high performance liquid chromatography (UPLC) system (Waters Corporation, Milford, Mass., USA) which included the HD-x PAL auto sampler (LEAP Technologies Inc., Carrboro, N.C., USA) for automated sample preparation. The LC tubing, pre- and analytical columns and switching valves were located in a chamber cooled to 0.3° C. The trypsin digestion column was stored at 15° C. Hydrogen exchange reactions were performed at 20° C. Mass analysis was performed online using a Waters SYNAPT G2 HDMS mass spectrometer.
The mass spectrometer was operated in positive ion mode with ion mobility separation enabled. […] Deuterated samples were analysed using the 6 V low energy trap collision offset only.
The MS^E-data was analysed using Waters ProteinLynx Global Server 2.5 and peptides of hTREM-1 were identified that covered 80% of the protein sequence (Table 3) and peptides of cTREM-1 were identified that covered 100% of the protein sequence (Table 4). The HX-MS data files were analysed using Waters DynamX 1.0 that automatically applies lock-mass correction and determines the degree of deuterium incorporation in each peptide. […]

[5] = biological target: T1, cynomolgus TREM-1 (cTREM-1) protein; test: SPR, mAb captured by anti-Fc, cTREM-1 as analyte (Example 11)
Description: Binding studies were performed on a ProteOn Analyzer (BioRad) that measures molecular interactions in real time through surface plasmon resonance. Experiments were run at 25° C. and the samples were stored at 15° C. in the sample compartment. The signal (RU, response units) reported by the ProteOn is directly correlated to the mass on the individual sensor chip surfaces in six parallel flow cells.
Anti-human Fc monoclonal or anti-murine Fc polyclonal antibody from Biacore human or mouse Fc capture kits were immobilized in horizontal direction onto flow cells of a GLM sensor chip according to the manufacturer's instructions. The final immobilization level of capture antibody was approximately 2600-6000 RU in different experiments. […] This regeneration step removed the anti-TREM-1 antibody and any bound TREM-1 protein from the immobilized capture antibody surface, and allowed for the subsequent binding of the next interaction sample pair.

| Kd [1] [nM] | Binder | further results |
| --- | --- | --- |
| 1.2 | mAb 0048 (antibody, V domains shown, also called 14F11A1B1; 14F11) VH: EVQLVESGGGLVQPKGSLKLSCAASGFTFNTYAMHWVRQAPGKGLEWVARIRTKSNNYATYYVDSVKDRITISRDDSQSMLYLQMNNLKTEDTAMYYCVRDMGIRRQFAYWGQGTLVTVSA VL: DIVLTQSPASLAVSLGQRATISCRASESVDSFGISFMHWYQQSPGQPPKLLIYRASNLESGIPARFSGSGSRTDFTLTINPVEADDVATYYCQQSNEDPYTFGGGTKLEIKR | binding result [2]: binds |
| 4.7 | mAb 0067 (antibody, V domains shown, also called 14F11A1B1 (recombinant)) VH: EVQLVESGGGLVQPKGSLKLSCAASGFTFNTYAMHWVRQAPGKGLEWVARIRTKSNNYATYYVDSVKDRITISRDDSQSMLYLQMNNLKTEDTAMYYCVRDMGIRRQFAYWGQGTLVTVSA VL: DIVLTQSPASLAVSLGQRATISCRASESVDSFGISFMHWYQQSPGQPPKLLIYRASNLESGIPARFSGSGSRTDFTLTINPVEADDVATYYCQQSNEDPYTFGGGTKLEIKR | – |
| – | mAb 0054 (antibody, V domains shown, Hybridoma antibody 14F128A1; also called 14F128A1; 14F128) VH: EVQLVESGGGLVQPKGSLKLSCAASGFTFNTYAMHWVRQAPGKGLEWVARIRTKSNNYATYYVDSVKDRITISRDDSQSMLYLQMNNLKTEDTAMYYCVRDMGIRRQFAYWGQGTLVTVSA VL: DIVLTQSPASLAVSLGQRATISCRASESVDSFGISFMHWYQQSPGQPPKLLIYRASNLESGIPARFSGSGSRTDFTLTINPVEADDVATYYCQQSNEDPYTFGGGTKLEIKR | binding result [2]: binds |
| 12 | mAb 0068 (antibody, V domains shown, Recombinant; also called 14F128/14F11 (recombinant)) VH: EVQLVESGGGLVQPKGSLKLSCAASGFTFNTYAMHWVRQAPGKGLEWVARIRTKSNNYATYYVDSVKDRITISRDDSQSMLYLQMNNLKTEDTAMYYCVRDMGIRRQFAYWGQGTLVTVSA VL: DIVLTQSPASLAVSLGQRATISCRASESVDSFGISFMHWYQQSPGQPPKLLIYRASNLESGIPARFSGSGSRTDFTLTINPVEADDVATYYCQQSNEDPYTFGGGTKLEIKR | – |
| 0.67 | mAb 0059 (antibody, IgG1, V domains shown, Recombinant; also called 14F113/14F69; 14F113A1B1C1 (recombinant)) VH: EVQLVESGGGLVQPKGSLKLSCGASDFTFNTYAMHWVRQAPGMALEWVARIRTKSSNYATYYADSVKDRFTISRDDSQNMLYLQMNNLKTEDTAMYYCVRDMGQRRQFAYWGQGTLVTVSA VL: DIVLTQSPASLAVSLGQRATISCRASESVDTFDYSFLHWYQQKPGQPPKLLIYRASNLESGIPARFSGSGSRTDFTLTINPVEADDVATYYCQQSNEDPYTFGGGTKLEIER | – |
| – | mAb 0044 (antibody, IgG2a, V domains shown, Hybridoma antibody; also called 14F69A1; 14F69) VH: EVQLEESGGGLVQPKGSLKLSCGASDFTFNTYAMHWVRQAPGMALEWVARIRTKSSNYATYYADSVKDRFTISRDDSQNMLYLQMNNLKTEDTAMYYCVRDMGQRRQFAYWGQGTLVTVSA VL: DIVLTQSPASLAVSLGQRATISCRASESVDTFDYSFLHWYQQKPGQPPKLLIYRASNLESGIPARFSGSGSRTDFTLTINPVEADDVATYYCQQSNEDPYTFGGGTKLEIER | binding result [3]: binds |
| 0.97 | mAb 0122 (antibody, human IgG4 S228P, kappa, V domains shown, Second humanised TREM-1 antibody; also called 14F113/14F69 hz variant LC M4L) VH: EVQLVESGGGLVQPGGSLKLSCAASGFTFSTYAMHWVRQASGKGLEWVGRIRTKSSNYATYYAASVKGRFTISRDDSKNTAYLQMNSLKTEDTAVYYCTRDMGQRRQFAYWGQGTLVTVSS VL: DIVLTQSPDSLAVSLGERATINCRASESVDTFDYSFLHWYQQKPGQPPKLLIYRASNLESGVPDRFSGSGSGTDFTLTISSLQAEDVAVYYCQQSNEDPYTFGQGTKLEIKR | – |
| 1.1 | mAb 0124 (antibody, V domains shown, Recombinant; LC G68R (Kabat) in CDR grafted 14F113; also called 14F113/14F69 hz variant LC G68R; 14F113 hz variant LC G68R) VH: EVQLVESGGGLVQPGGSLKLSCAASGFTFSTYAMHWVRQASGKGLEWVGRIRTKSSNYATYYAASVKGRFTISRDDSKNTAYLQMNSLKTEDTAVYYCTRDMGQRRQFAYWGQGTLVTVSS VL: DIVMTQSPDSLAVSLGERATINCRASESVDTFDYSFLHWYQQKPGQPPKLLIYRASNLESGVPDRFSGSGSRTDFTLTISSLQAEDVAVYYCQQSNEDPYTFGQGTKLEIK | – |
| 3.6 | mAb 0170 (antibody, human IgG4 S228P, kappa, V domains shown, Final humanised antibody from hybridoma 14F113 with LC M4L back-mutation and HC CDR3 Q98I (Kabat); also called 14F113/14F69 hz variant LC Q98I) VH: EVQLVESGGGLVQPGGSLKLSCAASGFTFSTYAMHWVRQASGKGLEWVGRIRTKSSNYATYYAASVKGRFTISRDDSKNTAYLQMNSLKTEDTAVYYCTRDMGIRRQFAYWGQGTLVTVSS VL: DIVLTQSPDSLAVSLGERATINCRASESVDTFDYSFLHWYQQKPGQPPKLLIYRASNLESGVPDRFSGSGSGTDFTLTISSLQAEDVAVYYCQQSNEDPYTFGQGTKLEIKR | binding result [4]: binds; Kd [5]: 3 nM |
